These results are taken from the domain aggregation screens of Martell et al. (2025).

The nature of this series: soluble fraction after stress (log2 fold change); higher = more stays soluble; pooled small domains, quantitative proteomics. The following applies: stress: 50 degC. An outline of the steps: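 After stress at 50°C, the amount of each protein still soluble was measured. This was done on pooled custom libraries of small protein domains, using high-throughput quantitative proteomics. The figure given is a base-two log fold change and stands for aggregation propensity, with higher values meaning more protein stays in solution.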
On to “HMSDLPLLEHARQNLSDDEFRILELTTIYGYRRVEVAKMLGEPISTINWKYNKLIKKVKTFYGEVYN”, for which the “soluble fraction (log2)” value was -1.02.
Then “HMTMNYFIIENNQQVGPLTLEQLVARNITSDTLVWKEGMEDWQPAWKVDELHTVLDQIRANAEQ”, with -0.0599.
The value for “HMNKEHINLDSSKFLSLLNKTKISMSNDETRHYLNGIYIHPTVSNKSSYLTGVATDSHRLSSSSIPVD” was 0.121; that for “HMLPSELLAQQRIVVQPGHNLWRIARATYGRGARYTVIYQANREQIADPNRIFPGQVFALPAA” was -0.121; that for “HMADQVLVMTRAVGQGDIVRNADIGLTSVAVDRAVATIPASQLDKIVGRHALVDLSPGQLLGSHSVGE” was 0.035.
Then “HMGELTNALATLSERERDVARLVAQGLDNRQIAAQLFLSEGTVRNRISDILDKLALTNRTQLAIAWLHAE”, with -0.588; and “HMSASLPAAVEDPDLPYRVGAKLRHARWGEGLLVGIQREGSDVIATVHFASVGRKRLSLQYAHLEE”, with -0.41.
As for “HMRSIMAVSNYRHKKILEMVYQRKSVSADELAAEFGVSKITIRRDLDTLAMDKLLERTRGGAISISD”, the “soluble fraction (log2)” value is -2.67.
The value for “HMHPSNQELTKVLAQGSELVLAQKYIEASQIFTRVIEIDQTWAEAWNKRATVFYLLQNYEASQKDIDEV” was 0.0182; that for “HMEQISDEDTLRKMVNEVLDNNQTQLEQYKSGKTNLIGFFVGQTLKKSAGKANPSIVNKLVNEEIYI” was 0.00998; that for “HMGQTDTIIKTTTDLYYEMSTMSDDDKLVVAQTLRDVWMAVGRWSGKLSKKQREKVAEVKRVLGE” was -0.833.
Then “HMDLKENQHILQISNKGVQMGNVLKDLIIQTLNITNGNQIKAAKLLAISRAKLRYRIEQLGINISGKNI”, with -0.215.
“HMVSVEINTVERDETFRKMFTSGWKPENRIQALAVEQAKKNGLGRMSEVAGLASFRGIWKQATEQVALEA”: the “soluble fraction (log2)” value is -0.12.
Then “HMDNLKELDEILETYGKKKGYLITILQKAQDAYGYISIDIMNRISEFTGIKVAKIYGVATFYAQFRL”, with 0.146; and “HMTMVVIMNADATQADIEGVISAIEEKGLEAKVMEGAHQKIVGVIGDKTKLAATPLDAMHGVETTVAIS”, with -0.0878.
The value for “HMGELDPKIIAQINTFLQGITKLIEHPGNKDAKKTALGALHKLTFDQNITANFGKQLGQLDQVIQSSEET” was 0.112.
Then “HMRPIWVQLADDFRHRIVSGQWPPGSKIPSVRELAAETGVNPNTVQRALGALDGEGLTATERTAGRFVTT”, with -0.0768; and “HMSEFLTIVRAVYSGLSRRKVAAMHKVSRNTVSLYLRQARDQGWLTLEDLEKLDDLTVSQGVS”, with -2; and “HMHMSKKLADSISALRKKNGLSQEQLAEKIGISRQTVSNWERGIATPDVETLNLISKLFDEDLSVMING”, with 0.199.
As for “HMTPQVALNDTETAIYEKMKQEKQMLLGELRAQFDISNKLWDTSLKTLTKNQLLAVSKEDDLLFVKL”, the “soluble fraction (log2)” value came out at 0.113.
The value for “HMPQLVGDVDGDGRVSVTDGEWIRASYGALPWYAGWRAAADLDGSRKIDVVDLELLRTKMGN” was -0.191.
The value for “HMGEDSEPVQVPDVTGQPLWEARRTLSSMGLKVLDDGGSGSVTAQMPSAGATLRNGGQMMLYTYDEALPE” was 0.133; that for “HMINVLTPKQIEATTIAVKYGYYENPRTVSMRELSEISGIARSTLQEHLSKAEAALMILAAKSQL” was -0.338; that for “HMVSQKPKERELWFREQLELAGLRLDPHAISAINETLGNDTGRFPGIIDTLLSTYGAGKKLSYDDVVMFL” was -0.477.
Regarding “HMVMVVDVLKALSNNSSDKFFNTSISNAIKAQEDSQEDFVTLFGIEYEKLSPNNGLAVIFTSQ”, the “soluble fraction (log2)” value was found to be 0.425.
Take “HMEKLIRIKRLIKQLNEYRDSYYNEARPVVSDAAYDKLFDELSELEKETGVVYANSPTQTVG”: the “soluble fraction (log2)” value is -0.149.
On to “HMNPNYIKKLREKNQLTQEYLAAQIGVSRPTYAQIEQGQRGLTVTEAKKMADIFSLALDDFLAEKN”, for which the “soluble fraction (log2)” value amounted to 0.0013.
The value for “HMRPEVALSSRELEILEALATGKSNKELAQRLFISEATVKTHLIHIYQKLGVDTRTAAVTVARERKL” was -1.52; that for “HMEDSAKRHQIMDGARRVFMDLGFDGASMNEIARAAGVSKGTLYVYFTDKNRLFEAIVEQESL” was -1.37; that for “HMETGELQQILEDVFSKNIGIVQDKREAAFSILMGMIMAKSRGRADGALVSTLLKKKLTEFLATSDQVR” was 0.0929.
Then “HMDLEMLEVEDTIKDLLSQHQKINAIKYYRNYMSEQLNVDMGLRQAKDTIDAIGRGATVDLSVGY”, with -0.0705; and “HMLDEKFLSELMLALLRNHRRGLRAEVLLHKVRSNMELDGYKSLLVGVGRMEMWELAREIIDFVKAEG”, with -4.4; and “HMEDIKHVVANNIKKYRKEERLTLQQLSYLTGVSKTMLNQIETEKSSPSITILWRISSGLKIPLSKLISSP”, with -1.61.
Turning to “HMNNESEGAIMLRQYSSLSAYLTKYNIDVNSKKAQQYASSLKLAQEKGSAEGQKYLSSISSELDD”, the “soluble fraction (log2)” value was -0.158.
Then “HMEEVYVPDIRDKSISDAKKILSQMGLKYRIEGEGYDDSTVIKDQTPKPGALLAKDSVVIAYINE”, with 0.126; and “HMKEYRKEGHLYFVTEDRNNEIYLWDFTDKPKHEFKEIITSVELQKVAKEGAMLQYKNGKYELYS”, with -0.171; and “HMANADVVLVDLDKEYTVDAAKFHSVVKHSPFNGFAVKGAPVLTIVRGTVVAENGEVVGQPGHSKMVRP”, with -0.0579.
The value for “HMDRSAQVLFLEHARSRLPQRIQWAEELAELLSIGIDSAYRRIRGETALTFNEAVSVSRKYDISLDYLFK” was -3.62.
The value for “HMTSLAEQAYRHIRDKLSNGAFVPGEQLVNRVLATEIGVSVIPVREAINRLATEGLVKHVPGSGAFVRQ” was 0.0904; that for “HMGPLTMGQRIVRLRTQAGLSQDALAEQLGVSRQSVSKWETDGSVPDLDRLVKLSKVFGVTLDELVKG” was -0.024.
“HMSSEDTQSRDRARKELSNEMSRIMKRYGLDYQPRDNADDIMNRLKAAGADENTLAYVQEKLK”: the “soluble fraction (log2)” value is 0.134.
Then “HMKDVVAPMSGRVVRLMVAAGDEVVKRQALVVVEAMKMENVLTAPKEGRIKKVPVREGMTVEVGQTLVSFE”, with -0.221; and “HMEVLSKRGSTGTEVINIQKKLKNWGYYTGSVDGIYGKLTEEAVRYFQRTNGLTVDGIAGKNTLAAMGIA”, with -0.356; and “HMPSEQGANKARDIIFRHHMKVDVWVGSWENARNYAEQAIKQGVKVIISRGGTAALLRHSLDTAIIKVR”, with 0.0222.
With “HMGQELTMPDLKSMSRSNAEEKLKKMGLKLGAVFEENAKEPAGTVINQDPRSGSKITKGQTVDITVSLGEK”, the “soluble fraction (log2)” value was 0.131.
As for “HMAPRLTERERQVLQLIAEGLTSMQIGDRLHIAASTVDVHRRNLMRKLDLHNVADLTRYAITQGISP”, the “soluble fraction (log2)” value was -0.0624.
Then “HMTEDIAVRILEFLEDNNGFYALNDKTPSEKIHDLFGVSKKKFKIALGGLYKQRLITVSDAGVTLVK”, with -1.29; and “HMVLVLPGEMIHVQVIDEGKEMGQGVGYLDDGTMVVVENGLRHIGRAIDVQVTKVLQTNAGRMIFGQPIL”, with -0.137.
The value for “HMENEDMTGDIRVIDYIRNVAEYIQTTKGQASASQMLDRFLFPPELQYTPLDKLSGGEQRRLYLLKVLMEA” was 0.0342.
Then “HMPRYSGMFAAWLHKALARMGKSMSDSARSAFTERVELDYSSANNELQKLSLLVGDRKVITEADVMRAIG”, with -0.292.
With “HMRQQSLHSLYRDHHSWLQNWLRRQLGNTWDAADLSQDTFIKVLASSQSVAEIREPRAYLLTVGKRL”, the “soluble fraction (log2)” value was -0.17.
Then “HMERYLLRDNIPNALHGERLDRVIAIMTGLSRSAVSALIKSNQVLRNGQIAQSISEKVVEGDELEVHLEP”, with -0.0223; and “HMEFDSLINYEVKKKETLFSISKKFKIEINDLLSFNTELKNNKLKKNSIIIIPLKKKIVESQNFEKQKIID”, with -1.37.
For the sequence “HMETWDQAYETIKQNILNLTYPPGMPLTEAKLAEELGMSRSPVRTALRMLQTDGLIVTDYYKSMTVKEI”, the “soluble fraction (log2)” value was -1.71.
The value for “HMIFEEDILKEFRGSLIFITHDRRFLDNIATRIIELDRGKLLSFPGNFSAYKKAKNEQLANEAVENA” was -0.446; that for “HMHRGEIVDGVIASVNPRSILIDIGGKSDALVHPRELERMSDEDLRSLKPGQDVSVYVIETDSDGTMLVSL” was -0.0402; that for “HMRDLAEAETILDALPTRLRKIVRWRHLEGLSQTEIAARLEISQMHVSRLYRRAISMIHASLADD” was -0.0123.
Then “HMNRIGERIKRKRELRNLNLGELAEKVGISASALSQIEKSKSFPSVITLKSIAEQLRTTVGELIGEN”, with 0.0607; and “HMSDTFENILQRLIKATGRKNASEMANALGLSPQSVYSAKTKGKIPPAWIFAAAERFNASADWIYFGY”, with -1.01.
Then “HMSVNEKVRLFRELNQWSQEEMAERMNMSVAGYAKIERGETNISLHKLKQIASVLQIDLLDLVS”, with -0.32; and “HMTKNEFLASFQNELQKRHIPDWEDVVSEYEQHFALKQADGFSEEEIAAKLGAPAELAAQFEA”, with -0.0437; and “HMAPPDFTTFMRNYQDMVYSTAVRLIGNETQAEDIAQEVFIKAHAHFENLRTSPSAGGWLKTVATNLSIN”, with -0.997.
Regarding “HMSQAVTMLKAGRLLANSKGTGAAVRDLEPGMLLYPTGQKDGTMWEVEDEMGNKGWVNSTSMQLA”, the “soluble fraction (log2)” value came to 0.188.
Then “HMPPFDDILAEYYEPLYRHVRRMVVSHDDAKDVMQEAMLRIFQGLDGLKDPSAVRTWVWRIATNEALRH”, with 0.0662; and “HMGHEISLNNSRFLKLLNKTKISISNDDTRHYLNGIFLHLTEAHGRQFLTGVATDSHRLSSSSLEID”, with -0.0045.
The value for “HMSDYVLLYSGLNTSDTTFLAYSFQEKGIRYKMPNPDEIEVRVQDVDQARRIAAGAQLGGQVS” was -0.424.
For the sequence “HMLTEEVEISLMDMTKPTQPATIKTTATIQKGATTVMPKQIKMPEGYEFYGNYKMDQPFELTMTFVVKKI”, the “soluble fraction (log2)” value is 0.115.
The value for “HMVLNVMIEEEVHREIIAAISKLPKERRRVVELSMAGFSQEEIAEKMAISVNTVKTIKLRAYRVLRERLKG” was -3.18; that for “HMSVSVEEDADGRVWVYYQDQKMDITDLFDENGVYGFNLEKGDRTVYVEVTKNADGTYSFTQTD” was -0.0127.
